Measurements published in publication PMC5520923.

Target: Atg16 (human (endogenous in HCT116 and H1299)) (UniProt Q676U5)
Assay: co-IP; lysates of HCT116/Shnon and HCT116/ShASPP1 cells (also H1299 with ASPP1 knock-down, Supplementary Figure 3B) immunoprecipitated with anti-Atg16 antibody; co-precipitated proteins detected by western blot

Sequence of UniProt Q676U5 (Q676U5 whole entry): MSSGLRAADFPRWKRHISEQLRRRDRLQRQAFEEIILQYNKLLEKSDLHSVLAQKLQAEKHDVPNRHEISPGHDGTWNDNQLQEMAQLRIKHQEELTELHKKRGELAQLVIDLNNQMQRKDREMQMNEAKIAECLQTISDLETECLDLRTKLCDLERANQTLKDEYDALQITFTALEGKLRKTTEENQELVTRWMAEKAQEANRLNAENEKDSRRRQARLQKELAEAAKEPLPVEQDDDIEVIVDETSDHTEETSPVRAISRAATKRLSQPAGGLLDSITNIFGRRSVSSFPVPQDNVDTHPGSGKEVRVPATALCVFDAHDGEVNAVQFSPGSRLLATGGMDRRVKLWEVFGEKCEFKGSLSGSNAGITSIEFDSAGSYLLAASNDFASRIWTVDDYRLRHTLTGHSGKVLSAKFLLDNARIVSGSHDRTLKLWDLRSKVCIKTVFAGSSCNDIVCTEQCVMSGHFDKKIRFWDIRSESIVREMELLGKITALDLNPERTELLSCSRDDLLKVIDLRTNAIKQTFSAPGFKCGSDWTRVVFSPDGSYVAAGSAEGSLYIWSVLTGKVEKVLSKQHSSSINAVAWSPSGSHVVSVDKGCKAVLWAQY

- fold increase of Atg5–Atg12 in the Atg16 immunoprecipitate, ASPP1 knock-down against control cells (H1299): 2 fold
- fold increase of Atg5–Atg12 in the Atg16 immunoprecipitate, ASPP1 knock-down against control cells (HCT116): 2 fold
Substance: Atg5–Atg12 conjugate (from UniProt Q9H1Y0 1-275; O94817 1-140) (complex)
